Tested on: MS2 coat protein
Assay: apparent KD of MS2 coat protein; designed switch direction (-1 OFF switch, 1 ON switch): -1; higher = weaker reporter binding
Summary of the method: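 Normalised cluster fluorescence was curve-fitted, and each design's median over clusters is its apparent KD. Before this, SNAP-549-labelled MS2 coat protein was titrated from 0.7 or 1.5 nM, doubling to 3 µM, over RNA switches transcribed on Illumina chips by stalled E. coli RNA polymerase. Titrations had no input, 200 uM small-molecule ligand, or an oligonucleotide input, and steps lasted 0.8–1.5 h (lowest) to 10–20 min (highest).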

[1] = input ligand: microRNA oligo, concentration not stated
[2] = Eterna round: R95, input ligand: FMN 200 uM
[3] = Eterna round: R95, input ligand: microRNA oligo, concentration not stated
[4] = Eterna round: R95, input ligand: none

Row | Sequence | apparent KD of MS2 coat protein (input ligand: FMN 200 uM) | apparent KD of MS2 coat protein [1] | apparent KD of MS2 coat protein (input ligand: none) | apparent KD of MS2 coat protein [2] | apparent KD of MS2 coat protein [3] | apparent KD of MS2 coat protein [4]
1 | CGUGACUCAGGAUAUCUAUAGUGUCACAUGAGGAUCACCCAUGUCCAGCGAAAGCUGGAGGGAGAAGGGAGUCACG [Fiskers Ex 5 - 43] (Eterna round: R96, puzzle: Exclusion 5) | 43.1 nM | 71.5 nM | 87.7 nM | – | – | –
2 | UCAUACGAUGAGGAUAUCUCCGUUAAAGUAUGUAGAGAAGGCGUUACAUGAGGAUCACCCAUGUUUGUGGGCAG [Ex-6 Malc#9] (puzzle: Exclusion 6) | – | – | – | 223 nM | 217 nM | 190 nM
3 | AUGCGUGGCUAGGAUAUCGAGGAAUUUAGCCAGCGAGAAGGAGCCACAUGAGGAUCACCCAUGUGGUGAACCUC [jl-ex6-4.62 ViennaUCT mod] (Eterna round: R97, puzzle: Exclusion 6) | 41.1 nM | – | 10.2 nM | – | – | –
4 | GGUACUAACACGAAAGUGUUAGUACUAUAAGUUUGUGUUACAUGAGGAUCACCCAUGUCCUCAUAAGCUCGUCUUGU [JL-sv3-2.20 mat747 mod] (puzzle: Sensor v3, turn-off variant 2) | – | – | – | 623 nM | 59.6 nM | 685 nM
5 | CUUUUGUGAGGAUAUUAGUAGUAAAUAAAUAAAAUUACUACUGAGAAGGCACAUGAGGAUCACCCAUGUUCUUC [salish99_ex4_r3_066] (puzzle: Exclusion 4) | – | – | – | – | 18.8 nM | –
6 | AGUAGAUCUACGCUUGCGUGGAUCUGCAAUGCAGGUGUUACAUGAGGAUCACCCAUGUCCUCAUUUGUUCGUCUUAG [JL turnoff v2 99.09] (puzzle: Sensor v3, turn-off variant 2) | – | – | – | 568 nM | 322 nM | 395 nM
7 | ACAUGUCAUUGAGGAUAUUGCAAACAUGAGGAUCACCCAUGUAUACGGAUGCUCUUACGUGGGUUCGAGAAGGCGAUGUACAUU [Ex NG2 #92] (Eterna round: R96, puzzle: Exclusion NG 2) | 819 nM | 345 nM | 429 nM | – | – | –
8 | UCCAUGUCAGGAUAUCUAAAGGUCCGAAAUAACGGUACUGCAGAGAAGGGACAUGAGGAUCACCCAUGUCCUCC [Exclusion 4 (Mod2 of Nando's EX4 C.22)] (Eterna round: R97, puzzle: Exclusion 4) | 20.3 nM | – | 16 nM | – | – | –
9 | UAUUAGCAAGCGAGAUCCCACAUGAGGAUCACCCAUGUGCUCGUCUUAUAAGGUACUGUGACGAAAGUCACGGUACC [Sensor 3, v1 - 91] (Eterna round: R96, puzzle: Sensor v3, turn-off variant 1) | 11.5 nM | 298 nM | 15.5 nM | – | – | –
10 | CAAAAUGCUCGAGGAUAUCCGAGGAGCAGAAAAGGAGAAGGCGAGGAUAAAGAACAUGAGGAUCACCCAUGUGAACCUCGUAAU [Lereores] (Eterna round: R96, puzzle: Exclusion NG 1) | 16.9 nM | 14.6 nM | 16.1 nM | – | – | –
11 | GCAUGCGACUGAGGAUAUGUAGUGACCUCAGUCGAGACAUGAGGAUCACCCAUGUACAGCACGUGACAGAAGGCAGCACAUGAU [Eternabot solution 14] (Eterna round: R96, puzzle: Exclusion NG 2) | 63.2 nM | 38.5 nM | 53.7 nM | – | – | –
12 | UGUUGUUACGCAGGAUAUGAGGAUCACCCAUAUAAGGAUAUCGAAAGAGAAGUUCUGAGGAUCACCCAGAAGGGCGGGUUAACA [pwkr exNG2 2xF5 2xFMN.31] (Eterna round: R96, puzzle: Exclusion NG 2) | 193 nM | 59 nM | 71.1 nM | – | – | –
13 | UAUGCCUUUGUGAGGAUAUACUUUGUUUGGUCGUAGUAGAAGGCACAUGAGGAUCACCCAUGUAGAUUUUUGGU [JR_BME4_Sub012] (puzzle: Brourd's mod of Exclusion 4) | – | – | – | – | 25.4 nM | –
14 | GAUCAGCUUGUGAGGAUAUCCGGGCAUAAAGGCUAGGAGAAGGUACAUGAGGAUCACCCAUGUAGAGUCCUGGG [Bisoraxe] (puzzle: Brourd's mod of Exclusion 4) | – | – | – | – | 41.2 nM | –
15 | GCACGACAUCAGGAUAUGACUAGCUGCGGCUAGUCAGAAGGGAUGACAUGAGGAUCACCCAUGUGAUCACGUGC [E6/2-B3] (Eterna round: R97, puzzle: Exclusion 6) | 114 nM | – | 85.3 nM | – | – | –
16 | AAGAAGUCAGGAUAUGCUAAAGAAAUAAAAAGAAAGAAAGAACAUGAGGAUCACCCAUGUAGAAGGGACAAGAA [Seheqenre Sankhptahi] (Eterna round: R96, puzzle: Exclusion 2) | – | 31.8 nM | – | – | – | –
17 | UCGCGCCUAGGAUAUAUAAGGACUUUCUAGUAUGUUGCGAAACAUGAGGAUCACCCAUGUAGAAGGAGGUAGUG [Eternabot (L2) Solution 89] (Eterna round: R97, puzzle: Exclusion 2) | 222 nM | – | 77.3 nM | – | – | –
18 | UUAUUAAGUGUGAGGAUAUGCUGGUCCUUGGAUCAGCAGAAGGCACAUGAGGAUCACCCAUGUACAAUAUUUUA [Mat - Exclusion 4 - JL Mod - D29] (puzzle: Brourd's mod of Exclusion 4) | – | – | – | – | 35.8 nM | –
19 | AAAAAGUGAGGAUAUACAUGAGGAUCACCCAUGUAAUAAAAAAAAAGGGUGGAAGAAAGUAGAAGGCACCAAAA [Ex 3 May 48] (Eterna round: R96, puzzle: Exclusion 3) | 323 nM | 64.5 nM | 65.3 nM | – | – | –
20 | UUUACAAGCUUUAGAUCCCACAUGAGGAUCACCCAUGUUCCUGGCCGUGAGGCUAGGUAAACUAAUGCUCGUCUUAU [JL TOV1 3.65] (Eterna round: R97, puzzle: Sensor, turn-off variant 1) | 197 nM | – | 244 nM | – | – | –
21 | AAAUUAGCAAGUAGGUCCGACAUGAGGAUCACCCAUGUUAUCUGAAAUAACGCAGCAUGAUUGUGCGCUCGUCUUAG [Sensor-V1 #7] (Eterna round: R97, puzzle: Sensor, turn-off variant 1) | 67.6 nM | – | 68.6 nM | – | – | –
22 | UACACUCAGCAGGAUAUGCAACAAAAUUAAAACGCAGAAGGGUUGACAUGAGGAUCACCCAUGUAACUCAUGCA [EX6 A.1] (Eterna round: R97, puzzle: Exclusion 6) | 14.2 nM | – | 15.7 nM | – | – | –
23 | CUAGCGAUUGUAGGAUAUCGAUGUGUUUCACAUCGAGAAGGACAUGAGGAUCACCCAUGUGAAGGAUCGUGAGAUCCACGCUAG [JL ENG1 3.78] (Eterna round: R96, puzzle: Exclusion NG 1) | 76.6 nM | 17.5 nM | 19.7 nM | – | – | –
24 | UAGGUGUGAGGAUAUGGUAAAGAUAAGAUGAUGAAAGAACUCCAGAAGGCACAUGAGGAUCACCCAUGUAGAUA [Mat - Exclusion 4 - Mod of JL - D31] (puzzle: Exclusion 4) | – | – | – | 34.9 nM | 20 nM | 20.5 nM
25 | CUGCUGGAGCUUUGCUUUAGUCGUACAUGAGGAUCACCCAUGUAGGAUAUGGUAGGCUUUGCUUACUAGAAGGAUGGAGUGGUC [salish99_ExNG3_r04_607] (Eterna round: R96, puzzle: Exclusion NG 3) | 166 nM | 38.1 nM | 50.2 nM | – | – | –
26 | UUAAUGUGAGGAUAUCAGGUGUGCUAGCGUACUGGUACAUCUGAGAAGGCACAUGAGGAUCACCCAUGUUCCUU [JL-ex4-3.27 Brourd mod] (Eterna round: R96, puzzle: Exclusion 4) | 59.4 nM | 15.9 nM | 20.6 nM | – | – | –
27 | GCUUGUCGAGGAUAUGCAUACACUGGAUACAGUGGAAGGUCACAUGAGGAUCACCCAUGUAGAAGGCGACGAGC [EX2 #39] (Eterna round: R97, puzzle: Exclusion 2) | 121 nM | – | 41.8 nM | – | – | –
28 | AAUAAGCGAGGAUAUACACCCGGUAACCGGGAACGGGCGAGACAUGAGGAUCACCCAUGUAGAAGGCGCGUCAA [Ralaente] (Eterna round: R97, puzzle: Exclusion 2) | 182 nM | – | 161 nM | – | – | –
29 | UUCAUGUGAGGAUAUGUGAUCUGCUUUCUGUUUAGAUGAUCACAGAAGGCACAUGAGGAUCACCCAUGUAGAUC [Ex4 - 3 - 30] (puzzle: Exclusion 4) | – | – | – | – | 60.5 nM | –
30 | CUAGAGCGAGGAUAUACAUGAGGAUCACCCAUGUGGCAGCCGGGUAGGAGUGACGUCGGUAGAAGGCGCACCCG [Anrate] (puzzle: Exclusion 3) | – | – | – | 27.5 nM | 33.2 nM | 37.9 nM
